Reference: the supplement of paper PMC10724198
± gives the standard deviation of the averaged measurements.

Tested on: Saccharomyces cerevisiae
Experiment: protein stability index of tFT-peptide fusion (C-terminal peptide) (PSI (0-1 scale)); higher = more stable (slower turnover)
Conditions: temperature: 30 C
Method: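 MPS profiling in S. cerevisiae of the yeast C-terminome library: the last 12 aa of each annotated ORF are fused to the C-terminus of a sfGFP-mCherry timer, after a GGGS linker. Cells are FACS-sorted into 8 mCherry/sfGFP bins and deep-sequenced. PSI runs from 0 (unstable) to 1 (stable); wild type and das1Δ backgrounds, two technical replicates each.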

[1] = genetic background: das1 deletion

Sequence | protein stability index [1] | protein stability index (genetic background: wild type)
YILFFLFQLSIM [PEX35 C-terminal 12 aa] | 0.342 ± 0.02 | 0.369 ± 0.015
KRDIVFAASLYL [SKI2 C-terminal 12 aa] | 0.6855 ± 0.0061 | 0.739 ± 0.12
SLNQPELINFKS [IZH4 C-terminal 12 aa] | 0.714 ± 0.017 | 0.71 ± 0.046
KSADPDAMDTTE [RVB2 C-terminal 12 aa] | 0.702 ± 0.016 | 0.695 ± 0.021
GVRRSVRLNNRV [MCM4 C-terminal 12 aa] | 0.699 ± 0.019 | 0.681 ± 0.015
LRKKQVKKKVKS [SLX8 C-terminal 12 aa] | 0.6885 ± 0.0062 | 0.716 ± 0.061
VWKRARVDLIAS [POL12 C-terminal 12 aa] | 0.591 ± 0.019 | 0.51 ± 0.029
LNFYNDNFGSQF [STP1 C-terminal 12 aa] | 0.723 ± 0.0098 | 0.71 ± 0.048
FASPTLSFFFPI [YGL149W C-terminal 12 aa] | 0.724 ± 0.013 | 0.7061 ± 0.002
VEMAVKFGKNAF [RIB4 C-terminal 12 aa] | 0.696 ± 0.012 | 0.689 ± 0.059
YLIAVTNLVERE [PPT2 C-terminal 12 aa] | 0.682 ± 0.045 | 0.723 ± 0.086
YAGIPENKIIGV [ARG56 C-terminal 12 aa] | 0.703 ± 0.048 | 0.702 ± 0.021
FSSEYLLVHVQQ [YLR458W C-terminal 12 aa] | 0.662 ± 0.011 | 0.654 ± 0.036
RRAAESGKLKME [YNL108C C-terminal 12 aa] | 0.693 ± 0.029 | 0.698 ± 0.067
LQPMEAFKYDRS [BIO2 C-terminal 12 aa] | 0.71 ± 0.0075 | 0.731 ± 0.046
ETGHISKDCPKA [GIS2 C-terminal 12 aa] | 0.698 ± 0.018 | 0.695 ± 0.013
TVQSKLGDHGFN [PEP7 C-terminal 12 aa] | 0.679 ± 0.015 | 0.707 ± 0.048

Sequence | protein stability index [1] | protein stability index (genetic background: wild type)
VADAMLDQGDVF [GDH3 C-terminal 12 aa] | 0.7137 ± 0.0052 | 0.6894 ± 0.0047
EKIKKILSELKK [NKP1 C-terminal 12 aa] | 0.705 ± 0.022 | 0.715 ± 0.021
MKQLEKAGVRFE [FMP33 C-terminal 12 aa] | 0.6871 ± 0.0014 | 0.686 ± 0.014
EFIFRESRKHNV [ERP3 C-terminal 12 aa] | 0.728 ± 0.058 | 0.71 ± 0.061
FWTINDDYGFLT [YLR278C C-terminal 12 aa] | 0.757 ± 0.029 | 0.77104 ± 0.00063
LEDHTPPEDKPN [QCR10 C-terminal 12 aa] | 0.718 ± 0.021 | 0.695 ± 0.0076
ARTKRLVQFEAR [RPC10 C-terminal 12 aa] | 0.6826 ± 0.0044 | 0.7169 ± 0.007
ITKSSNKFVNNV [YNL043C C-terminal 12 aa] | 0.665 ± 0.022 | 0.736 ± 0.091
DEDEDDSTTKEP [GLC8 C-terminal 12 aa] | 0.679 ± 0.011 | 0.7 ± 0.026
HIDIPDFAKWDI [SUL2 C-terminal 12 aa] | 0.727 ± 0.013 | 0.719 ± 0.009
QLVKLQLVELKL [LAM5 C-terminal 12 aa] | 0.6108 ± 0.0024 | 0.602 ± 0.026
TVPEFPAPIFPN [YDL159C-B C-terminal 12 aa] | 0.72 ± 0.019 | 0.689 ± 0.0079
ETNFWTAAMEYE [THI22 C-terminal 12 aa] | 0.717 ± 0.011 | 0.701 ± 0.014
SDENIQPELRGQ [ABF1 C-terminal 12 aa] | 0.675 ± 0.018 | 0.723 ± 0.047
LISCCCCCFRRC [YNL097W-A C-terminal 12 aa] | 0.6974 ± 0.004 | 0.669 ± 0.016
LATWDKQGNLKY [SRN2 C-terminal 12 aa] | 0.724 ± 0.012 | 0.696 ± 0.026
INILPVRKKKKV [SAS4 C-terminal 12 aa] | 0.705 ± 0.024 | 0.685 ± 0.036
